Test results reported in the RNAGym collection of RNA variant scans (doi:10.1021/acssynbio.7b00057).

B1: Pistol ribozyme (parent)
chain: GGGUCGUUGUUCCAUAAUCGCGUGGAUAUGGCACGCAAGUUUCUACCGGGCACCGUAAAUGUCCGACUGGAGCCGUUCGGGCGGCUAUAAACAGACCUCAGGCCCGAAGCGUGGCGGCACCUGCCGCCGGUGGUAAAAAAGAUCGGAAGAGCACACGUCU

Variants of: B1
Assay: aptazyme ON/OFF ratio, guanine; higher = stronger switching; co-transcriptional cleavage with and without guanine

Variant	aptazyme ON/OFF ratio
U7C U8G G9A U10A U11C C12U C13U	1.08
U7C U8G G9C U10C	3.58
U7C U8G G9C U10A	1.28
U7C U8G G9A U10C C12G C13G	1.12
U7C U8G G9A U10C C12G C13A	1.13
U7C U8G G9A U10C C12G C13U	1.31
U7C U8G G9C U10C C12G	1.08
U7C U8G G9C U10C C12A	1.07
U7C U8G G9C U10C C12U	1.27
U7C U8G G9C U10A U11G C12G C13U	1.18
U7C U8G G9C U10A U11G C12G C13A	1.31
U7C U8G G9C U10A U11G C12G C13G	1.16
U7C U8G G9A U10C U11C C13U	1.02
U7C U8G G9A U10C U11C C13G	1.01
U7C U8G G9A U10C U11C C13A	1.02
U7C U8G G9A U11C C12G C13A	1.05
U7C U8G G9A U11C C12G C13U	1.1
U7C U8G G9A U11C C12G C13G	1.17
U7C U8G G9A U10G C12U	1.37
U7C U8G G9A U10G C12A	1.37
U7C U8G G9A U10G C12G	1.34
U7C U8G G9A U10G C12G C13A	1.25
U7C U8G G9A U10G C12G C13G	1.1
U7C U8G G9A U10G C12G C13U	1.17

Variant	aptazyme ON/OFF ratio
U7C U8G G9A U10A U11G C12G	1.25
U7C U8G G9A U10A U11G C12U	1.38
U7C U8G G9A U10A U11G C12A	1.06
U7C U8G G9C U10A C12U C13G	1.13
U7C U8G G9C U10A C12U C13U	1.05
U7C U8G G9C U10A C12U C13A	1.21
U7C U8G G9C U10A C13A	1.14
U7C U8G G9C U10A C13U	1.15
U7C U8G G9C U10A C13G	1.08
U7C U8G G9C	1.08
U7C U8G G9C U10C C13G	1.08
U7C U8G G9C U10C C13A	1.06
U7C U8G G9C U10C C13U	1.71
U7C U8G G9A U10C U11A	1.24
U7C U8G G9A U10C U11G	1.23
U7C U8G G9A U10C U11C	1.03
U7C U8G G9A U11C C12G	1.11
U7C U8G G9A U11C C12U	1.11
U7C U8G G9A U11C C12A	1.1
U7C U8G G9A U10G U11C C12U C13G	1.25
U7C U8G G9A U10G U11C C12U C13U	1.29
U7C U8G G9A U10G U11C C12U C13A	1.34
U7C U8G G9A U11A C12G	1.11
U7C U8G G9A U11A C12A	1.29

Variant	aptazyme ON/OFF ratio
U7C U8G G9A U11A C12U	1.26
U7C U8G G9C U10C U11C C12U C13G	1.04
U7C U8G G9C U10C U11C C12U C13U	1.03
U7C U8G G9C U10C U11C C12U C13A	1.04
U7C U8G G9C U10C U11A C12A	1.08
U7C U8G G9C U10C U11A C12G	1.07
U7C U8G G9C U10C U11A C12U	1.09
U7C U8G G9A U10A U11G C12U C13A	1.24
U7C U8G G9A U10A U11G C12U C13G	1.25
U7C U8G G9A U10A U11G C12U C13U	1.35
U7C U8G G9C U10C U11A C12A C13G	1.06
U7C U8G G9C U10C U11A C12A C13A	1.08
U7C U8G G9C U10C U11A C12A C13U	1.09
U7C U8G G9C U10C C12A C13G	1.1
U7C U8G G9C U10C C12A C13A	1.06
U7C U8G G9C U10C C12A C13U	1.06
U7C U8G G9C U10A U11A C12A C13A	1.13
U7C U8G G9C U10A U11A C12A C13U	1.26
U7C U8G G9C U10A U11A C12A C13G	1.15
U7C U8G G9A U10G U11G C12G C13U	1.24
U7C U8G G9A U10G U11G C12G C13G	1.03
U7C U8G G9A U10G U11G C12G C13A	1.42
U7C U8G G9A U10C U11A C13G	1.07
U7C U8G G9A U10C U11A C13U	1.09

Variant	aptazyme ON/OFF ratio
U7C U8G G9A U10C U11A C13A	1.12
U7C U8G G9C U10C U11C C12A C13A	1.03
U7C U8G G9C U10C U11C C12A C13U	1.02
U7C U8G G9C U10C U11C C12A C13G	1.04
U7C U8G G9A U10C U11G C12G C13A	1.23
U7C U8G G9A U10C U11G C12G C13U	1.09
U7C U8G G9A U10C U11G C12G C13G	1.27
U7C U8G G9C C12U C13A	1.16
U7C U8G G9C C12U C13U	1.2
U7C U8G G9C C12U C13G	1.07
U7C U8G G9A U10C U11C C12U C13G	1.01
U7C U8G G9A U10C U11C C12U C13A	1.02
U7C U8G G9A U10C U11C C12U C13U	1.02
U7C U8G G9A U10G U11A C12A C13U	1.22
U7C U8G G9A U10G U11A C12A C13A	1.18
U7C U8G G9A U10G U11A C12A C13G	1.3
U7C U8G G9A U11G C12G C13G	1.27
U7C U8G G9A U11G C12G C13U	1.18
U7C U8G G9A U11G C12G C13A	1.16
U7C U8G G9A U10C U11A C12G C13A	1.07
U7C U8G G9A U10C U11A C12G C13G	1.09
U7C U8G G9A U10C U11A C12G C13U	1.11
U7C U8G G9A U10G U11A C12U	1.16
U7C U8G G9A U10G U11A C12A	1.47

Variant	aptazyme ON/OFF ratio
U7C U8G G9A U10G U11A C12G	1.24
U7C U8G G9A U10C U11C C12G C13A	1.13
U7C U8G G9A U10C U11C C12G C13G	1.14
U7C U8G G9A U10C U11C C12G C13U	1.07
U7C U8G G9A U10C U11C C12A	1.05
U7C U8G G9A U10C U11C C12U	1.01
U7C U8G G9A U10C U11C C12G	1.03
U7C U8G G9A U11G C13U	1.13
U7C U8G G9A U11G C13A	1.21
U7C U8G G9A U11G C13G	1.03
U7C U8G G9A U11G C12G	1.23
U7C U8G G9A U11G C12A	1.09
U7C U8G G9A U11G C12U	1.26
U7C U8G G9C U10A C12G	1.14
U7C U8G G9C U10A C12U	1.17
U7C U8G G9C U10A C12A	1.2
U7C U8G G9A U11G	1.18
U7C U8G G9A U11A	1.18
U7C U8G G9A U11C	1.04
U7C U8G G9A U11A C12G C13A	1.12
U7C U8G G9A U11A C12G C13U	1.08
U7C U8G G9A U11A C12G C13G	1.11
U7C U8G G9C C12G C13G	1.12
U7C U8G G9C C12G C13U	1.18

Variant	aptazyme ON/OFF ratio
U7C U8G G9C C12G C13A	1.27
U7C U8G G9A U10C U11C C12A C13A	1.03
U7C U8G G9A U10C U11C C12A C13G	1.04
U7C U8G G9A U10C U11C C12A C13U	1.06
U7C U8G G9A U11G C12A C13U	1.19
U7C U8G G9A U11G C12A C13G	1.17
U7C U8G G9A U11G C12A C13A	1.17
U7C U8G G9C U10C U11C C12A	1.04
U7C U8G G9C U10C U11C C12U	1.04
U7C U8G G9C U10C U11C C12G	1.05
U7C U8G G9A U10G C12A C13A	1.12
U7C U8G G9A U10G C12A C13G	1.08
U7C U8G G9A U10G C12A C13U	1.36
U7C U8G G9C U10A U11G C12A C13U	1.18
U7C U8G G9C U10A U11G C12A C13A	1.08
U7C U8G G9C U10A U11G C12A C13G	1.19
U7C U8G G9C U10A U11G C12U C13A	1.16
U7C U8G G9C U10A U11G C12U C13U	1.18
U7C U8G G9C U10A U11G C12U C13G	1.12
U7C U8G G9C U10A U11A C12G C13A	1.12
U7C U8G G9C U10A U11A C12G C13U	1.17
U7C U8G G9C U10A U11A C12G C13G	1.18
U7C U8G G9C U10A U11C C12A	1.19
U7C U8G G9C U10A U11C C12U	1.05

Variant	aptazyme ON/OFF ratio
U7C U8G G9C U10A U11C C12G	1.15
U7C U8G G9C U10C U11A C13G	1.23
U7C U8G G9C U10C U11A C13A	1.21
U7C U8G G9C U10C U11A C13U	1.21
U7C U8G G9A U10A U11G C13G	1.02
U7C U8G G9A U10A U11G C13U	1.27
U7C U8G G9A U10A U11G C13A	1.2
U7C U8G G9A U10C C12A	1.18
U7C U8G G9A U10C C12G	1.23
U7C U8G G9A U10C C12U	2.39
U7C U8G G9A U10A U11G C12G C13U	1.33
U7C U8G G9A U10A U11G C12G C13G	1.39
U7C U8G G9A U10A U11G C12G C13A	1.19
U7C U8G G9C U10A U11A C12A	1.22
U7C U8G G9C U10A U11A C12G	1.14
U7C U8G G9C U10A U11A C12U	1.26
U7C U8G G9A U11C C13G	1.02
U7C U8G G9A U11C C13A	1.04
U7C U8G G9A U11C C13U	1.05
U7C U8G G9A U10C C13U	1.92
U7C U8G G9A U10C C13G	1.06
U7C U8G G9A U10C C13A	1.04
U7C U8G G9A U10C U11A C12A	1.15
